Measurements taken from publication PMC10232437 (Scientific Reports, 2023).

Biological target: the molecule itself
Experiment: non-reducing SDS-PAGE with western blot; insoluble fraction (final pellet after Triton X-100 extraction) of SN tissue from control, MPTP/probenecid and NSA-treated mice, resuspended by sonication in 2% SDS lysis buffer, loaded with non-reducing sample buffer; anti-MLKL blot

B1: mixed lineage kinase domain-like protein (natural protein, UniProt Q9D2Y4 1-472, looked up)
chain: MDKLGQIIKLGQLIYEQCEKMKYCRKQCQRLGNRVHGLLQPLQRLQAQGKKNLPDDITAALGRFDEVLKEANQQIEKFSKKSHIWKFVSVGNDKILFHEVNEKLRDVWEELLLLLQVYHWNTVSDVSQPASWQQEDRQDAEEDGNENMKVILMQLQISVEEINKTLKQCSLKPTQEIPQDLQIKEIPKEHLGPPWTKLKTSKMSTIYRGEYHRSPVTIKVFNNPQAESVGIVRFTFNDEIKTMKKFDSPNILRIFGICIDQTVKPPEFSIVMEYCELGTLRELLDREKDLTMSVRSLLVLRAARGLYRLHHSETLHRNISSSSFLVAGGYQVKLAGFELSKTQNSISRTAKSTKAERSSSTIYVSPERLKNPFCLYDIKAEIYSFGIVLWEIATGKIPFEGCDSKKIRELVAEDKKQEPVGQDCPELLREIINECRAHEPSQRPSVDGRSLSGRERILERLSAVEESTDKKV
notes: mixed lineage kinase domain-like protein (MLKL), mouse, endogenous in the substantia nigra of C57BL/6 mice; Seen as a tetramer band in the insoluble fraction (non-reducing sample buffer) and as an oligomer on an A11 blot; also called MLKL; source: endogenous, mouse substantia nigra tissue lysate
- stoichiometry N: 4
